Assay results from patent publication US20140087995A1 (published 2014).
Numbered stars: 1 amine (or outer) side, 2 acyl side, 3 side chain; on linkers, the order of the positions; unused ones are H or OH. Bridge positions count the residues as written; N and C are the ends. Side chains are listed from the residue outwards. Ends that are not written are not given here. * marks the point of attachment. C20 diacid = O=C(O)CCCCCCCCCCCCCCCCCCC(=O)*; γGlu = O=C(O)[C@H](CCC(=O)[*:2])N[*:1]; AEEA = NCCOCCOCC(=O)O

What was measured:
[1] = molecular target: T1, human calcitonin receptor (human, UniProt P30988 25-474); assay: IC50 on human CTR divided by IC50 on human amylin receptor (Assays VII/V)
T1 construct: whole, on cells; Used as membranes prepared from a BHK tk'ts 13 cell line stably transfected with the human calcitonin receptor (Assay VII); also called hCTR; hCT
T1 sequence (looked up): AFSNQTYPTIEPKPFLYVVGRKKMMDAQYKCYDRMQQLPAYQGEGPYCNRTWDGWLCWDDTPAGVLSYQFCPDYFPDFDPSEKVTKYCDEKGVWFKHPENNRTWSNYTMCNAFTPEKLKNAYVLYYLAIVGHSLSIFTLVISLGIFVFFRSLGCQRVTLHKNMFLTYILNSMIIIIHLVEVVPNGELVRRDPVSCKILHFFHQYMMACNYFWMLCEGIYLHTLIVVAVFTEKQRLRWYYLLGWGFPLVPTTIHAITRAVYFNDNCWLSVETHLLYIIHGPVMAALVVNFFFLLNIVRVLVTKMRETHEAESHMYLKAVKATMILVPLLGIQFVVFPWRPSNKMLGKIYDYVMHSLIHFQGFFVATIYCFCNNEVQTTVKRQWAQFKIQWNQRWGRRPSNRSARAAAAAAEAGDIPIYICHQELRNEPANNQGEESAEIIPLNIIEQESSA
Outline: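 Competition binding by SPA with cell membranes (35 ng/μL) and SPA beads in 50 mM Hepes pH 7.4 with 1 mM CaCl2, 5 mM MgCl2, 0.1% OA and 0.02% Tween20. Incubated 120 min at 25 °C with shaking, then counted.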

[2] = molecular target: T2, rat amylin receptor (rat calcitonin receptor + rat RAMP 3) (rat, UniProt P32214 25-516; Q9JJ73 23-147); assay: SPA competition with 125I-rat amylin, membranes of BHK cells with rat CTR + rat RAMP3 (Assay VI)
T2 construct: whole, on cells; Used as membranes prepared from BHK tk'ts 13 cells transiently transfected with rat calcitonin receptor and rat RAMP 3 (Assay VI); also called rAmylin-R; rat amylin 3(a) receptor
T2 sequence (looked up) 1: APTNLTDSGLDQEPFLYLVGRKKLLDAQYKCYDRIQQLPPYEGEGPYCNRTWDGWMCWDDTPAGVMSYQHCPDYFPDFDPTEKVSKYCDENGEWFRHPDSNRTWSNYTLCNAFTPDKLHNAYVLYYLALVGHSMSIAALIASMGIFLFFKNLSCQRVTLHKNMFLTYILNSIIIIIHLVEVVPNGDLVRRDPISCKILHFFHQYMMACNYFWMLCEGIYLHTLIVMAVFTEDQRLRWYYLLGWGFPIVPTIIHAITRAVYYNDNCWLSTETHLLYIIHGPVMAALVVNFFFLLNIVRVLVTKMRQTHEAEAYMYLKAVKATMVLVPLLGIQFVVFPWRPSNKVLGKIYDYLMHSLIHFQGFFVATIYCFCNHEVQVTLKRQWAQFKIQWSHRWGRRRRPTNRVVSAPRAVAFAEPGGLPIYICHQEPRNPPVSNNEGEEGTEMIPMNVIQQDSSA
T2 sequence (looked up) 2: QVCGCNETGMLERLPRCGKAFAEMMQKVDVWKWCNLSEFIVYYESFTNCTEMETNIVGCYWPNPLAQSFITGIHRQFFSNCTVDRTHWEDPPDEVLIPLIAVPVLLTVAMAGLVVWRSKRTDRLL

[3] = molecular target: T3, rat calcitonin receptor (rat, UniProt P32214 25-516); assay: SPA competition with 125I-calcitonin, membranes of BHK cells with rat CTR (Assay VIII)
T3 construct: whole, on cells; Used as membranes prepared from BHK tk'ts 13 cells transiently transfected with the rat calcitonin receptor (Assay VIII); also called rCTR; rat calcitonin (a) receptor
T3 sequence (looked up): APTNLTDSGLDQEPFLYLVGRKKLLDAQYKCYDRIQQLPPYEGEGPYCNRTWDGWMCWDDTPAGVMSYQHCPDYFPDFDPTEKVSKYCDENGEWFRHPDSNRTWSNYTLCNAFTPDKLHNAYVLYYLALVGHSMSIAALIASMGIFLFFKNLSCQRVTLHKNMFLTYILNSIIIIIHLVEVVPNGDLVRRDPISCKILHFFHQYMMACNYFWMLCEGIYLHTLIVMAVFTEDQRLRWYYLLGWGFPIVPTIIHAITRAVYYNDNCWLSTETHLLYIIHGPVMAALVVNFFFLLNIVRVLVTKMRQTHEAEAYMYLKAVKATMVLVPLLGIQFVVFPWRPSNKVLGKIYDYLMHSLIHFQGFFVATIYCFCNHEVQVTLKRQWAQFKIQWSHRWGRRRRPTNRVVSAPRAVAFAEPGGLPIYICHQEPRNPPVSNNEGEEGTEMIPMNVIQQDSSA

[4] = molecular target: T3, rat calcitonin receptor; assay: IC50 on rat CTR divided by IC50 on rat amylin receptor (Assays VIII/VI)

Ratio hCT/hAmylin binding [1]: 26.8
IC50 [2]: 0.623 nM
IC50 [3]: 41.8 nM
Ratio rCT/rAmylin binding [4]: 67.1
B1: N^ε-[2-[2-[2-[[(4S)-4-carboxy-4-(19-carboxynonadecanoylamino)butanoyl]amino]ethoxy]ethoxy]acetyl]Lys[Arg1,Arg17,Pro21,Pro27,His35]-h-amylin (peptide)
peptide: K([AEEA-γGlu-C20 diacid])RCNTATCATQRLANFLRHSSPNFGAIPSSTNVGSHTY-NH2
modifications: disulfide 3-8; N-terminus assumed
SMILES: CC[C@H](C)[C@H](NC(=O)[C@H](C)NC(=O)CNC(=O)[C@H](Cc1ccccc1)NC(=O)[C@H](CC(N)=O)NC(=O)[C@@H]1CCCN1C(=O)[C@H](CO)NC(=O)[C@H](CO)NC(=O)[C@H](Cc1c[nH]cn1)NC(=O)[C@H](CCCNC(=N)N)NC(=O)[C@H](CC(C)C)NC(=O)[C@H](Cc1ccccc1)NC(=O)[C@H](CC(N)=O)NC(=O)[C@H](C)NC(=O)[C@H](CC(C)C)NC(=O)[C@H](CCCNC(=N)N)NC(=O)[C@H](CCC(N)=O)NC(=O)[C@@H](NC(=O)[C@H](C)NC(=O)[C@@H]1CSSC[C@H](NC(=O)[C@H](CCCNC(=N)N)NC(=O)[C@@H](N)CCCCNC(=O)COCCOCCNC(=O)CC[C@H](NC(=O)CCCCCCCCCCCCCCCCCCC(=O)O)C(=O)O)C(=O)N[C@@H](CC(N)=O)C(=O)N[C@@H]([C@@H](C)O)C(=O)N[C@@H](C)C(=O)N[C@@H]([C@@H](C)O)C(=O)N1)[C@@H](C)O)C(=O)N1CCC[C@H]1C(=O)N[C@@H](CO)C(=O)N[C@@H](CO)C(=O)N[C@H](C(=O)N[C@@H](CC(N)=O)C(=O)N[C@H](C(=O)NCC(=O)N[C@@H](CO)C(=O)N[C@@H](Cc1c[nH]cn1)C(=O)N[C@H](C(=O)N[C@@H](Cc1ccc(O)cc1)C(N)=O)[C@@H](C)O)C(C)C)[C@@H](C)O
notes: Analogue of human amylin; also called compound 45
